Laboratory results taken from PMC3544819, “Pax6 Interactions with Chromatin and Identification of Its Novel Direct Target Genes in Lens and Forebrain”.

Target: Pax6 PD/HD (UniProt P63015 4-269)
Assay: EMSA; not given in the material
Details: protein: recombinant; blunt

Sequence of Pax6 PD/HD (P63015 4-269): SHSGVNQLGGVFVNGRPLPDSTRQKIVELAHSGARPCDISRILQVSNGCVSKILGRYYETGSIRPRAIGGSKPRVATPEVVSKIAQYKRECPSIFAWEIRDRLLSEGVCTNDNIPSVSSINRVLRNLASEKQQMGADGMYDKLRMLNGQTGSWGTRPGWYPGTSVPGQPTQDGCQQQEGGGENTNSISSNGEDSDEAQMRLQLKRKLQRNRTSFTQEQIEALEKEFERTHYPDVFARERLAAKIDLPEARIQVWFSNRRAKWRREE

B1: Kif1b site 2 (dsDNA)
DNA 1: TAGGAAGCTTTCTGCTGGATACACTCATGCCTGAGCGTG
DNA 2: CACGCTCAGGCATGAGTGTATCCAGCAGAAAGCTTCCTA
B1: binds.

B2: Kif1b site 1 (dsDNA)
DNA 1: ATGACCAATAGTAAAGCGTGGCTGGAAGAGGGG
DNA 2: CCCCTCTTCCAGCCACGCTTTACTATTGGTCAT
B2: binds.
